Results on three molecules are retold here after publication PMC5472690, “3-Hydroxybenzoate 6-Hydroxylase from Rhodococcus jostii RHA1 Contains a Phosphatidylinositol Cofactor” (Frontiers in Microbiology, 2017).

Data set [1] relates to O=C(O)c1cccc(O)c1. Briefly: purified protein. The note with it: fixed NADH, 50 mM Tris-SO4, pH 8.0, 25°C.
The target in data set [2] is T1, Rj3HB6H (Rhodococcus jostii, UniProt Q0SFK6).
T1 construct: gene RHA1_ro01869; full length, C-terminal His6 tag, produced in R. jostii RHA1#2; N-terminal Met lacking; 46,761 Da subunit; homodimer
Description: X-ray crystal structure, […] Å. It counts as binding. Particulars: pH 8.5 precipitant; co-bound phospholipid.

Substrate in data set [3]: NC(=O)C1=CN([C@@H]2O[C@H](COP(=O)(O)OP(=O)(O)OC[C@H]3O[C@@H](n4cnc5c(N)ncnc54)[C@H](O)[C@@H]3O)[C@@H](O)[C@H]2O)C=CC1
Briefly: purified protein. The note with it: fixed 3-hydroxybenzoate, 50 mM Tris-SO4, pH 8.0, 25°C.

As to Rj3HB6H (Rhodococcus jostii RHA1), in data set [1], the Michaelis constant (Km) is 35 ± 3 µM and the kcat worked out at 20 ± 1 s⁻¹.
With `Cc1cc2nc3c(=O)[nH]c(=O)nc-3n(C[C@H](O)[C@H](O)[C@H](O)COP(=O)(O)OP(=O)(O)OC[C@H]3O[C@@H](n4cnc5c(N)ncnc54)[C@H](O)[C@@H]3O)c2cc1C` [FAD], in data set [2], the “X-ray crystal structure, 2.3 Å” value was “The isoalloxazine moiety of FAD was refined with full occupancy”.

B1: Rj3HB6H (Rhodococcus jostii RHA1) (protein)
chain: SNLQDARIIIAGGGIGGAANALALAQKGANVTLFERASEFGEVGAGLQVGPHGARILDSWGVLDDVLSRAFLPKNIVFRDAITAEVLTKIDLGSEFRGRYGGPYFVTHRSDLHATLVDAARAAGAELHTGVTVTDVITEGDKAIVSTDDGRTHEADIALGMDGLKSRLREKISGDEPVSSGYAAYRGTTPYRDVELDEDIEDVVGYIGPRCHFIQYPLRGGEMLNQVAVFESPGFKNGIENWGGPEELEQAYAHCHENVRRGIDYLWKDRWWPMYDREPIENWVDGRMILLGDAAHPPLQYLASGAVMAIEDAKCLADYAAEDFSTGGNSAWPQILKEVNTERAPRCNRILTTGRMWGELWHLDGTARIARNELFRTRDTSSYKYTDWLWGYSSDRAS
On to B1, for which, in data set [3], the Km turned out to be 68 ± 5 µM and the kcat came out at 20 ± 1 s⁻¹.

The term Km denotes the concentration of substrate that gives half-maximal velocity. In general, kcat refers to the number of substrate molecules converted per active site and unit of time at saturation.
